The results in this text go back to the DeepSol protein solubility set.

The series is described as follows: soluble on expression in E. coli; label from the status in PepcDB or PDB records.
On to “MGSDKIHHHHHHMKIILTTSMSGLGGTETATVRLGRLLKRHGHDIILASSDGPFVGEAQASGIRWQPVDFYRGGLAGYLKSTFAYARMLRREQPDIIDCQMARVVPACALAAKIVSPKTKIICHSHGLDAATYPKTAKLFDKLGAYIIGNCKHEREKLIRHGFPAGRIAYAYNTPPEFHFRKTEKECAVLGTLSRLDTVRAVHLMLDILKKMVGRNIPVRLNMAGIGEEMDNLKAQAKRLGIEDKVTFLGGVRDLTGYFKEVDILVNTPHCVGDHGAGVGNNILEAGLYDTPVVTYNMAGISEMVITGQTGYCIPFGDDEAFIEAVDTLIKHPELRSQMGKALHKHVETLCSDDEIYRTTMAAYEM”, for which the “soluble on expression in E. coli” value was “not soluble”. The entry for “MGSDKIHHHHHHMKISIIGAGSVRFALQLVGDIAQTEELSREDTHIYMMDVHERRLNASYILARKYVEELNSPVKIVKTSSLDEAIDGADFIINTAYPYDPRYHDSGSQRWDEVTKVGEKHGYYRGIDSQELNMVSTYTYVLSSYPDMKLALEIAEKMKKMAPKAYLMQTANPVFEITQAVRRWTGANIVGFCHGVAGVYEVFEKLDLDPEEVDWQVAGVNHGIWLNRFRYRGEDAYPLLDEWIEKKLPEWEPKNPWDTQMSPAAMDMYKFYGMLPIGDTVRNGSWKYHYNLETKKKWFGKFGGIDNEVERPKFHEQLRRARERLIKLAEEVQQNPGMKLTEEHPEIFPKGKLSGEQHIPFINAIANNKRVRLFLNVENQGTLKDFPDDVVMELPVWVDCCGIHREKVEPDLTHRIKIFYLWPRILRMEWNLEAYISRDRKVLEEILIRDPRTKSYEQIVQVLDEIFNLPFNEELRRYYKEKL” is “soluble”; for “MGSDKIHHHHHHMKISVLGAGCIGGSIALKLKEKHHVTAFDRDEETMKALEENGIETVSKESDLYDTDLLVLALPMSVEERFLKETDFSGKILDVASVKTPFMEIARERGLNFTGGHPMAGNERKGKSGWDREMFDGKIFFLCSLDGKEDGMIENIVKDLGARPLWIDYRIHDEIVAAVSHVQYLISLSARYVGKPFEEYAGPGYLSNTRLSKQNMEMALDMIRYNKENILKYLENARNFLNVLYHLTEKEDFENLKKVIREVIS” it is “not soluble”. As to “MGSDKIHHHHHHMKKEKVEERIREILRPGWDLLTEEAMLYSATVGGKRIRPLLVLTLGEDLGVEEEKLLDVAVAVELFHTASLIHDDLPPIDNADFRRGKPSCHRTYGEDIALLAGDGLFFLAFSQISKIGNSKIFEEFSETAYKLLLGEAMDVEFERRKMEVSQEMVERMYAFKTGALFAFCFSAPFILKGKDHTKMKLLGEKFGVAFQIYDDLKDILGSFEKVGKDLGKDTEKVTLVKKVGIQKAREMADKYYEEVLKGIESEGLFRTLFLLKELKQMVEER”, the “soluble on expression in E. coli” value is on record as “soluble”. The entry for “MGSDKIHHHHHHMKKKIVVLLPMKANSTRVKGKNFRDFCGKPLFRWILDSLLAVEDIDQIVINTDARDILAENGLVGTDRILIRDRKKEICGDEVSMNRVLADDVENVEADIYLMTHTTNPLLSSNTIKQAINQYNEELASASADSLFTVNKIQTRFYTAKCEPINHDPDNLIPTQDLEPWFEENSNLYLFNRESFAKTNARIGAKPSMMVSPAMECSDIDTPDDWDQAVVMTHYMLEKGFVKL” is “not soluble”. “MGSDKIHHHHHHMKKLYILAIAIAVTTFSCKKNKEDEPAPSGSEQAKVVENYANIVYATYDDALITAKNLRAKAADFVASPSEAGLEEVRAAYIASRTPYIQSEAFRFYSGPIDQDLGGGLTIESSINSWPLEEVYIDYVVGDANAGIINDVAHFPTIDKNVILENNQKEGAGENSVSSGYHAVEFLLWGQDLSETGPGDRKYTDYLVNSDDATNLNQARRGQYLLACIDLIIDNLQTLKEAWKSGNASNYRAGFIADPKGSIGNFLKGVIGYADDELSVERMQVALDTEGDAERQEQEQSCFSDQTYNDIILGQKGIKNVYVGEYVRIDGTIVSGMSVSDLVKAADPKLDSTVRAKIYDTDIKVAAIHAPFDNEILTANTAGTIRVQNAINALHVEAAQYKNAANKIGYLY”: the “soluble on expression in E. coli” value is given as “not soluble”. Regarding “MGSDKIHHHHHHMKKNIIILGLISLLAVSCGDDFLTTHPGDSVSTDLALSTEQDIDNAVNGLYDLMSSYGYYGGTMFFYGDMKGDDMQSSYNSGRTCNRCYLYDHRSTSLNAGYLWGRPFYIIRNAWNVINAIDDGKVQGSEQRLKELKGEAMTIMALCQFDLTRCFGYPYTKDKGAGWGAPIVDHAITLDENPPRSTVAKDYEFIISTLEEAIPLMSTSKNNSRMNAYAARALLSRIYLYHDDNEKAFQMASNLIEEVEGNGMYRLYTRDEYVPAWDLKNTFGTESLFEIANSTDDNGGRSSLAYLMHWNGYREIFATQKFVDELLSDPEDIRCLLLEKNVYNKNDVWWLKKWPGTDATTPSFENNYVIFRLSEVYLNAAEAGVKIGGASAVKGLNYLNAIVQRANPAKEVTAAEYTLDRVLEERSKELIGEGHRFFDMLRNGKTIVRKGGYHLPGIVEEIDWDYYKCVLPIPTDQFTFSPDMEQNPGYTKN”, the “soluble on expression in E. coli” value was “not soluble”. Turning to “MGSDKIHHHHHHMKKVIPALALVLLTTGLVGCDRVEPGNVGIKVNKLGDDKGVGEVVGVGRYWTGWNTEVYIFPTFKQMKTYDEPFSFQMSDGTTIGYHIGVAYKVDPSKVTTVFQTYRKGVDDITDTDLRQKIADALNRLASKMTTDKFIDGGKSELLDAALKDIQEEMTPIGIQVMSLSYVGKPEYPPTVIDSINAKVTANQKTLQCEQEVKQREAEANMLRAEAAGQADAIRTKAQAEADAIRLRGEALRQNPNVMELEAINKWNGTLPQYMTSGANTPFIQVK”, the “soluble on expression in E. coli” value is listed as “not soluble”. On to “MGSDKIHHHHHHMKKYKNSLYVLALCGTMAACKPHIEEPSIDKGSLDVTKYVAVGNSITSGYADNALYYDGQQVSFANLLSGQFSKIGGGEFKQPLVSQTSVGVGSTGGARLKLALKTDCLGNTSLSPVPVAASGDLSIFGNIYSSAGPFNNMGVPGAKSVTTIYHGYGNPGNGLGKFNPFFTRMASNPATASILQDAMAQNPTFFTLFIGSNDVLLYALAGAANDSITPVAGGPGVGFDASMDAIVNTLVSGGAKGAIGNVPDITSLPYFTTVPYNGLVLTSQAQVDALNTAYTPFGITFHLGQNPFIIADAAAPGGRRQITSSEYVLLSVPQDSLKCNQWGSAKPIPNQYILTASEISNIRTAITNYNSKIKNLAAAHGLAFVDVNSFLMMAETGITYNGINLNTTFVSGGAFSLDGVHLTPIGNAMLANEFIKSINMTYGSTLPLIDATKYSGVKFP”, for which the “soluble on expression in E. coli” value is recorded as “not soluble”. The entry for “MGSDKIHHHHHHMKLLCSLASPYARCVRSLIRYLGIEDIEEVLVNPMENTAQLLDVNPLGQIPCLITNDGVPIFDSEVIMRYLDTELGAQEMFGGQPYNWVLQCQYSMIKGLIDSAVKLRQEQMREEEGVRSAFWTSRFEQALLRGLMQMEHQSVITQTTIQAPQLTLICLLDYVDFRHPELDWRKVAPATAIWFSEMRDLPAFVETRPQ” is “not soluble”. “MGSDKIHHHHHHMKLNTLLQRLDQTVPLAFDTSLQNPEITSLQFDDDTTLSLHPTSLYLAVSADQTITLKGSVGKTAQLSLCAQMQLKNESQLAQLFDRAGCLLTSETSLQAQVNQLAIKAITEDFDTILNQAARTLGNPLIVLDLVGQPVAQSTQAPAISDLTAPAITSVQVQQALKKFRPAKDLIPQVILIQQSQLPLLLLCLPLAYRNNALGYLVMPACVRPLTAEQTAFFKAEAKIITSSLIKNRMMPTAASKRDQLLTMLLTEQQSGTFAAQFAKEHATLPTSMVLIKGEPRAGQSLAALKERLKYLLTPLFSQTLITLYHHQCLALVSVDLPTYNNPEFKADLATIADRANCRLIVSNQYTRPEDTIAAYAVCSRTAKLKSQPTHVTMCEDAFFDLMLAQVDHAEILPFFINPAVKALMDHDAENKTELLPTLDAYLESGENLTHTARQLFIHLNTLRYRLKHISDITGIDLKDAETCFKLGASFKVRRYLNHNKLTFTR”: the “soluble on expression in E. coli” value is “not soluble”. In the case of “MGSDKIHHHHHHMKNIKIFPKDWLQLHPYKQSTPVDSYYTGIANRIYDIMEKTELVNSFEGEETKQICIRMAAYFEDVISGMGLWRAFILTHKELYGKYLPFYTPDDHYYDDEVNLEDVRFLLWHYTQQYHGYRKGTFVSPDNPANESTGMLIYDLFCKEWTTAPENTRMAKLFALDTRYERQEDYDRLLQWFHYESYILPESARELSDFAHDRWKEQPDLNQEQLNNLLVNSHGMMAYTSKTSLLGLTSPQWLAKILPAEHPDHAVFQNTADESVATLPDDMLEENRQQYETFRKAAGDKLLLYFDKTEDAQTFITETSGLIPAENFHLPEDWQGKKLAIYATPEEGAQVITRDVELIKDENNPFYDANRAAKQALSFFIVKHCSVYFLPELVKRGMLADAQTKSLISPERGKAIIQENWKFLARYFIREYPNR”, the “soluble on expression in E. coli” value is on record as “not soluble”.

For “MGSDKIHHHHHHMKNNETKVPTSRLSRLSKMGGLASRLAGNVLLEGAKQLSQGKSPSMQQLMMTPKNIGHVADKLSQLRGAAMKVGQMLSMDAGDLVPPELAEILAKLRSDAKAMPHKQLTQLLVQHWGHDWLAPFAQFELRPFAAASIGQVHLAYLDTGEKLAIKIQYPGIRDSIDSDIDNVASLLKVSRLIPANVKLDTLLAEAKAQLHNEADYHFEAQQIALYQQQLGDSPHFIVPKVYPKLSNNSILCMQFVEGVAIESVEHSPQDVRDKVASALMELCFKELFCFQLVQSDPNFANFQYQADSQKIVLLDFGATRTISDTLSQGYMQLMQGAIADDKQQMIQAAQQIGFFQDAIDPQQKQLIIDIFYQACEPLRTQGTYDFGASNLAKRITQAGKAMSTQQNEWHTPPTDAIFIHRKLAGMYLLAAKLNANINVHALFNQVVNSKNE”, the “soluble on expression in E. coli” value is reported as “not soluble”. In the case of “MGSDKIHHHHHHMKNNKNEKLKITIVSGFLGSGKTTFLTHYINELLKIDEKITVIMNEFGSFDVDGNHLSELVKVYPLLNGCVCCDMKSDLVQQIEMLSHNHETDHIIIEATGIAHPIELIMACQDPRIVQFVERPHVVSIVDALRFLQRQQYTDSTKRLMEEQLEVSDVLVVNKLDLISVEDRDALKNQLNEVNKYSSKIYTTYGQVNIEELSQFRDQLVMTHTHSHHHGINSMQYTFTTAIDRQLFYQFILRMPDNVLRLKGYVQFKDEPNVTYEFQYSFGMPDYEVINGDYPLTIVLIGEQLDVNRLKNKLDVLQFS”, the “soluble on expression in E. coli” value is “not soluble”. Next, “MGSDKIHHHHHHMKNVVTDPEKVTRILKTATEIFGQQGFIKSKTDQIANQAQVSKGLLFHYFGNKQALYLDAFKYAYHRIYDHMDPKKWQNAPGLAAMMTTAVKYELKLQFKFPAEYRLMMQAYADLPHFPEPLRQQVQQETTAISAEADRIFREKIEQLPRREGLSVDDVFGVVSALIAQQTAVTTRLIASGHYRKFEDLQSVVETMARQLLIVEHGFLPDES”: “not soluble”; “MGSDKIHHHHHHMKQELALFIKKIIDLPAAEEKKLLAITRVYKVPKGDFYIQIGQIPKKFAFVAKGLFRYVYIDSKGNEFTKNFVPENNFALAYSSMIRHEVSKMAIEALEDSIICEIDYTDWLTLKKGNACWNIFLITILENAFTIKENRERDLLLLDAEQRYETFRQEFPALETRVKQHLIASYLGISPVSLSRIRKKRT”: “not soluble”; “MGSDKIHHHHHHMKQIAVVSGKGGTGKTTFTASLGVLLENSLLADCDVDASNLYILFPGDPVEEHEYYRGKKAVIDQEKCDRCGICERVCRFDAIIPGEKYGVDQYACEGCNACVVSCPRNAITLVQSLAGRYFFAWSGGKPIVYARLSPGEENSGGLVAEVRKLALEKAKELKRDYVIIDGAPGIGCSATSSIVGVNYVVVVTEPTMSGLHDLKRIVETLKCLKREFGIVINKYDINSVVSREIEDYCLSEGLDLLGKIPFDETVVRASVECKPVVTYENSPAAESIKKIVEKIIEKIS”: “not soluble”.
